The subject of one data set is brain. The following applies: mouse, in vivo. The source says: In experiment 2, IA injections of antibodies suspended in 0.9% NaCl were comparted to IA injections of antibodies suspended in serum. PET imaging and post-mortem antibody biodistribution were used as outcome measures.
For data set [1], the system named is brain hemispheres. Also on record: species or system mice. Particulars: mouse. The protocol: A catheter was placed into the right internal carotid artery (ICA) in 14 male C57BL6 mice for intra-arterial (IA) injections. […] To confirm OBBBO, Gadolinium-enhanced T1 MRI was conducted, and safety was confirmed through subsequent serial MRI over 1-2 weeks.
In a further data set the test system is head and neck region. The arrangement: species or system mice. Particulars: mouse, in vivo. On the procedure: Radiolabeled bevacizumab (Zr 89-bevacizumab) was administered via both IA and IV routes. […] Ex vivo measurements of drug biodistribution across various organs further corroborated these findings, quantifying radioactivity in specific tissues such as the skin, salivary glands, tongue, and jaw muscle (FIG. 7e). The method comprised pretreatment with composition comprising a hyperosmotic agent, stopping the pretreatment administration, and then administrating the radiolabeled bevacizumab. Without being bound by theory, it is believed that to enhance drug delivery, the pretreatment with the hyperosmotic agent would extract water from the tissue (local dehydration), followed by rapid rehydration upon cessation of the hyperosmotic infusion. This process was expected to improve the transition of the intra-arterially administered drug from the vascular compartment to the parenchymal tissues, thereby increasing drug accumulation in the targeted areas.

In data set [2] the test system is brain hemispheres and organs. Description: Ex vivo biodistribution of ^89Zr-BVDFO after OBBBO (Example 1). Also on record: species or system mice. Particulars: mouse. On the procedure: On completion of PET/CT after infusion of ^89Zr-BVDFO, the mice were euthanized and left and right brain hemispheres, heart, lungs, liver, spleen, kidneys, and blood were harvested, weighed using Mettler Toledo […] Balance and radioactivity of each was measured using CRC®[…] Dose Calibrator and Well Counter, Mirion Technologies. To calculate the percentage injected dose per […] of tissue (% ID/g), first, the radioactivity present in the syringe after injection was measured and subtracted from initial measurement before injection to calculate the total injected dose. Then, the percentage of each organ's radioactivity measurement relative to the total injected dose was calculated and divided by the weight of the organ. The biodistribution data shown are mean % ID/g+SE.

Data set [3] concerns brain hemispheres. Particulars: mouse, in vivo.
Procedure: Then, monoclonal antibody (mAb) bevacizumab was conjugated to deferoxamine (DFO) and the conjugate was radiolabeled with zirconium-89 (^89Zr). OBBBO was performed using 25% mannitol or 4% NaCl in 25% mannitol, followed by intraarterial (IA) injection of the radiolabeled mAb and positron-emission tomography (PET) imaging to assess the distribution of the mAb. The percentages of injected dose per cubic centimeter of tissue (% ID/g) and standardized uptake values (SUV) were calculated for selected organs and regions.
Approximately 7.5 MBq (˜202 μCi) of ^89Zr-BVDFO reconstituted in 0.2 mL of saline was infused intraarterially at a speed of 0.15 mL/min and each animal was transferred to the PET/CT scanner. […] Regions of interest (ROIs), including right and left brain hemispheres, heart, lungs, and liver, were demarcated in the axial plane, and standardized uptake values (SUV) were calculated using the Fiji ImageJ PET/CT plugin.
Linear mixed modeling with restricted maximum likelihood (REML) method was performed using ‘Imer’ package, with % ID/g or SUVmean or SUVmax as a dependent variable, organs and BBBO type as fixed effects and mouse ID as a random effect. Estimated marginal means were calculated using ‘emmeans’ package for organ and BBBO interactions, and p-values for pairwise comparisons were extracted.

Regarding “^89Zr-BVDFO: monoclonal antibody bevacizumab (Avastin) conjugated to deferoxamine (DFO) and radiolabeled with zirconium-89”, in the data set with brain, the “CNS penetration, antibodies suspended in 0.9% NaCl vs suspended in serum” value is on record as “much higher”. Moreover, the “antibody penetration to the brain, IA vs IV” value with brain (iv) is reported as “much higher”. Further, the “ex vivo biodistribution, accumulation in the ipsilateral hemisphere” value in the data set on brain hemispheres [1] is reported as “confirmed by ex vivo biodistribution”. Besides, the “standardized uptake values (SUV), accumulation in the ipsilateral hemisphere” value in the data set on brain hemispheres [1] (in vivo) is “substantial accumulation”. Besides, the “antibody uptake in the head and neck region, IA compared to IV” value with head and neck region was “significantly higher”. Besides, the “uptake in the blood, lungs, spleen, liver, and kidneys” value in data set [2] was “high uptake”. The “accumulation of radioactivity in the ipsilateral hemisphere” value in the data set with brain hemispheres [3] was “substantial accumulation”.

Source of the values: US20250221923A1, “BOOSTING OSMOTIC BLOOD-ORGAN BARRIER OPENING FOR IMPROVED DELIVERY OF THERAPEUTICS TO ORGANS” (priority 2024, published 2025).
